This series deals with T1, NC(=O)C1=CN([C@@H]2O[C@H](COP(=O)(O)OP(=O)(O)OC[C@H]3O[C@@H](n4cnc5c(N)ncnc54)[C@H](O)[C@@H]3O)[C@@H](O)[C@H]2O)C=CC1.
T1 construct: Mo form
The experiment in a line: purified protein. It counts as biochemical, Clostridium carboxidivorans. As to conditions: 100 mM sodium bicarbonate, 50 mM Bis-Tris pH 6.8, 30 °C, oxic, Mo-loaded enzyme, part of preparation may be inactive.

The record followed here is PMC11770034, “Characterization of the oxygen-tolerant formate dehydrogenase from Clostridium carboxidivorans” (Frontiers in Microbiology, 2025).

The Km is the concentration of substrate that gives half-maximal velocity. Usually Vmax stands for the rate approached at saturating substrate. Usually kcat stands for the number of substrate molecules converted per active site and unit of time at saturation. For orientation: kcat/Km means the turnover number divided by the Michaelis constant. Regarding “ccFDH (Mo-ccFDH) (Clostridium carboxidivorans P7; U139C)”, the Km came out at 60 ± 7 µM, the Vmax was determined as 5.83 µmol/min, the kcat stood at 0.02 ± 0.0008 s⁻¹ and the kcat/Km is 310 ± 84 M⁻¹ s⁻¹.
